From PMC314469, “Protein Interaction Networks by Proteome Peptide Scanning” (PLoS Biology, 2004)

T1: Boi1 SH3 (BOI1_YEAST), P38041
T1 chain: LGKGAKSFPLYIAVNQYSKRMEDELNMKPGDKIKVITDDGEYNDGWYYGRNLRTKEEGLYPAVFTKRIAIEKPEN

T2: Boi2 SH3 (BOI2_YEAST), P39969
T2 chain: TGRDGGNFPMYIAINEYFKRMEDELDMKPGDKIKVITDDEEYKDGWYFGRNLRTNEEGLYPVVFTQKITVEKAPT

T3: Myo5 SH3 (MYO5_YEAST), Q04439
T3 chain: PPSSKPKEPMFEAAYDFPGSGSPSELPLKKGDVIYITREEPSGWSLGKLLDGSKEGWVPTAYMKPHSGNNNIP

T4: Rvs167 SH3 (RV167_YEAST), P39743
T4 chain: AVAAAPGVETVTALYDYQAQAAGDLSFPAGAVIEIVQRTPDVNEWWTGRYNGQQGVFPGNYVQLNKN

T5: Yfr024 SH3 (LSB3_YEAST), P43603
T5 chain: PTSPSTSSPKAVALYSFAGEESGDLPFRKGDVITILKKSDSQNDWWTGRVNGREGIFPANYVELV

T6: Yhr016c SH3 (YSC84_YEAST), P32793
T6 chain: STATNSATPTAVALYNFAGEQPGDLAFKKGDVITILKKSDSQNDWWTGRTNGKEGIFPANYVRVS


Legend:
Test in all cases: SPOT array
[1] = target: T1, Boi1 SH3 (BOI1_YEAST), P38041
[2] = target: T2, Boi2 SH3 (BOI2_YEAST), P39969
[3] = target: T3, Myo5 SH3 (MYO5_YEAST), Q04439
[4] = target: T4, Rvs167 SH3 (RV167_YEAST), P39743
[5] = target: Sho1 SH3 (SHO1_YEAST), P40073
[6] = target: T5, Yfr024 SH3 (LSB3_YEAST), P43603
[7] = target: T6, Yhr016c SH3 (YSC84_YEAST), P32793

Chain of Sho1 SH3 (SHO1_YEAST), P40073 (P40073 295-366): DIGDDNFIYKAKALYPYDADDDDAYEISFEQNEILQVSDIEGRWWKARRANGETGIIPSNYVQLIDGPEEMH

normalised SPOT signal, Boehringer light units (BLU); mean over the file's lines of this peptide [1]	normalised SPOT signal, Boehringer light units (BLU); mean over the file's lines of this peptide [2]	normalised SPOT signal, Boehringer light units (BLU); mean over the file's lines of this peptide [3]	normalised SPOT signal, Boehringer light units (BLU); mean over the file's lines of this peptide [4]	normalised SPOT signal, Boehringer light units (BLU); mean over the file's lines of this peptide [5]	normalised SPOT signal, Boehringer light units (BLU); mean over the file's lines of this peptide [6]	normalised SPOT signal, Boehringer light units (BLU); mean over the file's lines of this peptide [7]	Binder
76.2	0	56.5	61.7	49.8	58.3	22.6	SVNIKSWPLKPSNF [YNL226W 113-126]
32.5	23.1	23.4	18.8	14700	129	31.5	TDLFKPLPEPPTEL [YNL331C 2-15]
79.9	15.7	228	22.9	97.2	132	19.4	TELLRIIPEMPKDL [YLR032W 80-93]
40.4	0	163	34400	86.7	13800	9520	TEFSRPIPPTPSGF [YPL009C 63-76]
3080	32.8	740	100	50	212	28.8	SYISRKYPRAPAFI [YMR320W 69-82]
114	24.7	91.1	17.6	28.2	48.2	46.1	SVDPKNYPDAPLEG [YKL215C 38-51]
273	45.9	593	84	109	423	28.9	TARNKKSPGGPRQR [YLR244C 372-385]

The next lines start with the binder.

Binder	normalised SPOT signal, Boehringer light units (BLU); mean over the file's lines of this peptide [1]	normalised SPOT signal, Boehringer light units (BLU); mean over the file's lines of this peptide [2]	normalised SPOT signal, Boehringer light units (BLU); mean over the file's lines of this peptide [3]	normalised SPOT signal, Boehringer light units (BLU); mean over the file's lines of this peptide [4]	normalised SPOT signal, Boehringer light units (BLU); mean over the file's lines of this peptide [5]	normalised SPOT signal, Boehringer light units (BLU); mean over the file's lines of this peptide [6]	normalised SPOT signal, Boehringer light units (BLU); mean over the file's lines of this peptide [7]
TEVWRKVPMKPIFE [YCR032W 1849-1862]	163	33.4	243	523	59.1	4970	788
TASGKTSPILPLQN [YBR066C 94-107]	106	20.8	290	35.8	0.1	2.6	5.1
TDTTKVTPIVPVPI [YHR188C 382-395]	27.1	-0	48	24.6	30.2	11.7	6.5
TDLGKDIPFFPSSE [YDR443C 541-554]	0	15.6	146	59.3	48.6	9.5	13.5
TEIYKLEPREPQVD [YEL031W 1078-1091]	132	15.6	29.1	98	29	0	64.7
TELLKTLPFYPTPS [YGR110W 91-104]	57.9	0	77.3	57.4	53.6	22.7	10.8
SVSEKTNPSSPSVS [YHR061C 244-257]	124	29.4	127	2	111	0	12.6
SYMDKIYPDLPNDK [YFL047W 497-510]	221	22.8	83	75.3	138	224	37.2
STNAKKDPFPPPKD [YGR140W 417-430]	33	0.9	198	39.8	85	52.1	26.7
